Experimental data reported in patent US20200024330A1.

Key:
Assay in all cases: cell-based or functional assay
[1] = biological target: HIV-1 Env of pseudovirus APV_6, clade B (HIV-1)
[2] = biological target: HIV-1 Env of pseudovirus TRO.11 (Acute), clade B (HIV-1)
[3] = biological target: HIV-1 NL43 envelope protein (Env) on pseudovirus (HIV-1)
[4] = biological target: HIV-1 Env of pseudovirus JRCSF, clade B (HIV-1) (UniProt P20871)
[5] = biological target: HIV-1 Env of isolate MGRM-G-011 (clade G pseudovirus) (HIV-1)
[6] = biological target: HIV-1 93IN905 envelope protein (Env) on pseudovirus (HIV-1)
[7] = biological target: HIV-1 MGRM-C-023 Env (HIV-1)
[8] = biological target: HIV-1 MGRM-F1-006 Env (pseudovirus) (HIV-1)
[9] = biological target: HIV-1 Env of pseudovirus APV_13, clade B (HIV-1)
[10] = biological target: HIV-1 Env of pseudovirus MGRM-Chronic-B-004, clade B (HIV-1)
[11] = biological target: HIV-1 92RW020 envelope protein (Env) on pseudovirus (HIV-1)
[12] = biological target: HIV-1 Env of pseudovirus SC422661.8 (Acute), clade B (HIV-1)
[13] = biological target: HIV-1 MGRM-C-004 Env (HIV-1)
[14] = biological target: HIV-1 MGRM-F1-015 Env (pseudovirus) (HIV-1)
[15] = biological target: HIV-1 92RW009 envelope glycoprotein (Env) (HIV-1)
[16] = biological target: HIV-1 MGRM-F1-018 Env (pseudovirus) (HIV-1)
[17] = biological target: HIV-1 MGRM-C-019 Env (HIV-1)
[18] = biological target: HIV-1 Env of isolate MGRM-AE-002 (HIV-1)
[19] = biological target: HIV-1 Env of isolate 92UG046 (clade D) (HIV-1)
[20] = biological target: HIV-1 Env of isolate 92WR026 (HIV-1)
[21] = biological target: HIV-1 Env of isolate NL43 (HIV-1)
[22] = biological target: HIV-1 Env of isolate MGRM-F1-012 (subtype F), on pseudovirus (HIV-1)
[23] = biological target: HIV-1 Env of isolate 92WR009 (HIV-1)
[24] = biological target: HIV-1 JR-CSF Env E466A (HIV-1 (isolate JR-CSF)) (UniProt P20871)
[25] = biological target: HIV-1 Env of isolate MGRM-F1-023 (subtype F), on pseudovirus (HIV-1)
[26] = biological target: HIV-1 Env of isolate 92WR024 (HIV-1)
[27] = biological target: HIV-1 Env of isolate MGRM-C-025 (HIV-1)
[28] = biological target: HIV-1 JR-CSF Env N478A (HIV-1 (isolate JR-CSF)) (UniProt P20871)
[29] = biological target: HIV-1 Env of isolate MGRM-F1-020 (subtype F), on pseudovirus (HIV-1)
[30] = biological target: HIV-1 Env of isolate MGRM-A-008 (clade A), on pseudovirus (HIV-1)
[31] = biological target: HIV-1 Env of isolate MGRM-D-026 (subtype D), on pseudovirus (HIV-1)
[32] = biological target: HIV-1 Env of isolate MGRM-C-006 (HIV-1)
[33] = biological target: HIV-1 Env of isolate 98CN006 (HIV-1)
[34] = biological target: HIV-1 Env of isolate MGRM-C-028 (HIV-1)
[35] = biological target: HIV-1 Env of isolate 92UG005 (HIV-1)
[36] = biological target: HIV-1 MGRM-A-010 envelope glycoprotein (Env) on pseudovirus (HIV-1)

Substance	IC50 (µg/ml), pseudovirus neutralization [1] [µg/mL]	IC50 (µg/ml), pseudovirus neutralization [2] [µg/mL]	neutralization IC50 [3] [µg/mL]	IC50 (µg/ml), pseudovirus neutralization [4] [µg/mL]	IC50 (µg/ml), pseudovirus neutralization [5] [µg/mL]	neutralization IC50 [6] [µg/mL]	IC50 [7] [µg/mL]	IC50 (µg/ml), pseudovirus neutralization [8] [µg/mL]	IC50 (µg/ml), pseudovirus neutralization [9] [µg/mL]	IC50 (µg/ml), pseudovirus neutralization [10] [µg/mL]	neutralization IC50 [11] [µg/mL]	IC50 (µg/ml), pseudovirus neutralization [12] [µg/mL]	IC50 [13] [µg/mL]	IC50 (µg/ml), pseudovirus neutralization [14] [µg/mL]	IC50 (µg/ml), pseudovirus neutralization [15] [µg/mL]	IC50 (µg/ml), pseudovirus neutralization [16] [µg/mL]	IC50 [17] [µg/mL]	IC50 (µg/ml), pseudovirus neutralization [18] [µg/mL]	IC50 (µg/ml), pseudovirus neutralization [19] [µg/mL]	neutralization IC50 [20] [µg/mL]	also measured
2F5 (antibody)	0.25	> 50	2.41	1.85	1.16	> 50	> 50	1.1	3.81	2.41	3.37	> 50	> 50	0.1	39.1	3.91	> 50	0.31	> 50		
2G12 (antibody)	1.9	0.29	0.75	0.37	> 50	> 50	> 50	> 50	9.24	8.65	0.56	0.84	> 50	> 50	26.1	> 50	> 50	> 50	> 50		
4E10 (antibody)	1.1	1.39	4.95	3.3	1.44	1.55	1.95	1.01	7.33	3.7	3.38	6.35	24.2	0.53	> 50	3.6	3.49	0.55	12.2		
5136_H01 (PGT-131) (antibody)																				0.041	IC50 [21]: > 50 µg/mL; IC50, pseudovirus neutralization [22]: > 50 µg/mL; neutralization IC50 [23]: 3.12 µg/mL; Fold IC50 increase relative to wild-type [24]: 1.7 fold; IC50, pseudovirus neutralization [25]: > 50 µg/mL; neutralization IC50 [26]: > 50 µg/mL; IC50 [27]: > 50 µg/mL; Fold IC50 increase relative to wild-type [28]: 1 fold; IC50, pseudovirus neutralization [29]: > 50 µg/mL; IC50, single-round pseudovirus neutralization [30]: > 50 µg/mL; IC50, pseudovirus neutralization [31]: > 50 µg/mL; IC50 [32]: 0.611 µg/mL; IC50 [33]: 35.3 µg/mL; IC50 [34]: > 50 µg/mL; IC50 [35]: 0.854 µg/mL
5147_N06 (PGT-130) (antibody)																				0.037	IC50 [21]: > 50 µg/mL; IC50, pseudovirus neutralization [22]: > 50 µg/mL; neutralization IC50 [23]: 1.27 µg/mL; Fold IC50 increase relative to wild-type [24]: 1.7 fold; IC50, pseudovirus neutralization [25]: 0.05 µg/mL; neutralization IC50 [26]: > 50 µg/mL; IC50 [27]: > 50 µg/mL; Fold IC50 increase relative to wild-type [28]: 0.8 fold; IC50 (ug/ml), neutralizing activity [36]: 0.0054 µg/mL; IC50, pseudovirus neutralization [29]: 9.73 µg/mL; IC50, single-round pseudovirus neutralization [30]: > 50 µg/mL; IC50, pseudovirus neutralization [31]: > 50 µg/mL; IC50 [32]: 0.095 µg/mL; IC50 [33]: 0.258 µg/mL; IC50 [34]: > 50 µg/mL; IC50 [35]: 0.959 µg/mL
5343_B08 (PGT-135) (antibody)																				0.068	IC50 [21]: 8.03 µg/mL; IC50, pseudovirus neutralization [22]: 0.01 µg/mL; neutralization IC50 [23]: > 50 µg/mL; Fold IC50 increase relative to wild-type [24]: 0.5 fold; IC50, pseudovirus neutralization [25]: 0.088 µg/mL; neutralization IC50 [26]: > 50 µg/mL; IC50 [27]: > 50 µg/mL; Fold IC50 increase relative to wild-type [28]: 0.7 fold; IC50, pseudovirus neutralization [29]: 0.168 µg/mL; IC50, single-round pseudovirus neutralization [30]: > 50 µg/mL; IC50, pseudovirus neutralization [31]: > 50 µg/mL; IC50 [32]: > 50 µg/mL; IC50 [33]: 0.429 µg/mL; IC50 [34]: 1.47 µg/mL; IC50 [35]: > 50 µg/mL
